Test results reported in patent publication US20230391865A1 (University of California, published 2023).
Values belong to the binder of their own block, whether it stands above or below them.

Target: T1, human Tetraspanin-3 (TSPAN3) (human, UniProt O60637 1-253)
T1 construct: whole, on cells; also called human TSPAN3; cell surface expressed TSPAN3
Assay: flow cytometry (FACS) on TSPAN3-expressing cells
Source text: Using the hybridoma technology, i.e., fusing the antibody-producing B-cells harvested from the immunized mice with myeloma cells, two hybridoma fusion libraries were generated three days later (one from the reactive NZBW mouse and one from the two pooled reactive CD-1 mice), and then retested for reactivity to surface-expressed human TSPAN3.

T1 sequence (O60637 whole entry): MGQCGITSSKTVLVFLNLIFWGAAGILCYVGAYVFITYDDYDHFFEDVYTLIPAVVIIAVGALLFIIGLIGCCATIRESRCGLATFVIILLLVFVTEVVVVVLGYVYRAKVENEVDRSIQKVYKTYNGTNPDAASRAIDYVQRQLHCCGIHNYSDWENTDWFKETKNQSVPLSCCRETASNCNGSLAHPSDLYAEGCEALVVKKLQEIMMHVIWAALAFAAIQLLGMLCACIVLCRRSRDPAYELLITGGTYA

B3: Anti-TSPAN3 M3 clone monoclonal antibody (antibody, V domains shown)
VH: QIQLVQSGPELKKPGETVKISCKASGYTFTTYGMSWVKQAPGKGLKWMGWINTYSGVPTYADDFKGRFAFSLETSASTAYLQINNLKNEDTATYFCARSHYSNFYAMDYWGQEPQSP
VL: DIVMTQSHKFMSTSVGDRVSITCKASQDVGTAVAWYQQKPGQSPKLLIYWASTRHTGVPDRFTGSGSGTDFTLTISNVQSEDLADYFCQQYSSYPLTFGAGTKLELK
notes: Mouse hybridoma clone; isotype IgM, kappa; also called Clone 3 (TSPAN3-C - M3)
% Gated: 60.7%
Median Fluorescence Intensity (MFI): 284 MFI

B4: Anti-TSPAN3 M1 clone monoclonal antibody (antibody, IgG1, V domains shown)
VH: QVQLQQPGAELVKPGASVKLSCKASGYTFTSYWMHWVKQRPGQGLEWIGMIHPNSGSPNYNERFKSKATLTVDKSSSTAYMQLSSLTSEDSAVYFCARWGDGYHRYFDVWGTGTTVTVSS
VL: DIQMTQSPASLSASVGETVTITCRASGNIHNYLAWYQQKQGKSPQLLVYNAKTLADGVPSRFSGSGSGTQYSLKINSLQPEDFGSYYCQHFWSTPPYTFGGGTKLEIK
notes: Mouse hybridoma clone (CD-1 library); isotype IgG1, kappa; also called Clone 1 (TSPAN3-C - M1)
% Gated: 59%
Median Fluorescence Intensity (MFI): 290 MFI

Continued, values first:

% Gated: 73%
Median Fluorescence Intensity (MFI): 529 MFI
B1: Anti-TSPAN3 M5 clone monoclonal antibody (antibody, IgG2b, V domains shown)
VH: EVQLQQSGPELVKPGASVKMSCKASGYTFTDFYMHWVKQSHGRSLEWIGYIYPHNGFTKYNQSFMGKATLTVNKSSNTAYMELRSLTSEDSAVYYCARRYGDYWGQGISVTVSS
VL: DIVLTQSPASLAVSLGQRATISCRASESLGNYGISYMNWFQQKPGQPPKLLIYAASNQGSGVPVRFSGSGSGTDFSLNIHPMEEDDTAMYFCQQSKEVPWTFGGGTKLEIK
notes: Mouse hybridoma clone; isotype IgG2b, kappa; also called Clone 5 (TSPAN3-C - M5)

% Gated: 69.5%
Median Fluorescence Intensity (MFI): 308 MFI
B2: Anti-TSPAN3 M6 clone monoclonal antibody (antibody, IgG2b, V domains shown)
VH: B1 VH
VL: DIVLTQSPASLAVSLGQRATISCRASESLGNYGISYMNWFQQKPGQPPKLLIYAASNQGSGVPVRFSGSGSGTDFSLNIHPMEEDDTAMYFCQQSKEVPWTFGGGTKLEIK
notes: Mouse hybridoma clone; isotype IgG2b, kappa; also called Clone 6 (TSPAN3-C - M6)
